Data reported in US7452534.

How the values were obtained:
[1] = target: T1, recombinant human soluble CD4 (human, UniProt P01730 26-394, limits assumed); experiment: SPR (BIAcore), soluble CD4 on immobilized mAb, 25 C
T1 construct: Soluble form; also called sCD4
Method: (§1) The stoichiometry of binding of soluble CD4 to immobilized mAbs can be determined by saturation binding experiments on BIAcore (Pharmacia). Data for the association and dissociation phases of the SPR progress (FIG. 19) were analyzed directly using the integrated form of the rate equations as described in O'Shannessey et al., Anal. Biochem., 212: 467-468 (1993). […] Thus, the stoichiometry of CD4 binding was the same for all mAbs and close to the theoretical value of 2.0.

[2] = target: T1, recombinant human soluble CD4; experiment: SPR (BIAcore) saturation binding of soluble CD4 to immobilized mAb
Method: as §1

[3] = target: T1, recombinant human soluble CD4; experiment: SPR
human CD4 on cells [4] = target: T2, human CD4 on cells (human, UniProt P01730 26-458); experiment: cell-based or functional assay
human CD4 on cells [5] = target: T2, human CD4 on cells; experiment: cell-based or functional assay; remark: listed apart in the source
human C1q = target: T3, human C1q (human, UniProt P02745 23-245; P02746 28-253; P02747 29-245); experiment: C1q binding (summary table of effector functions)
T3 construct: also called Clq

[6] = target: T4, chimpanzee CD4 on lymphocytes (chimpanzee, UniProt P16004 26-458); experiment: flow cytometry of blood of chimpanzees dosed at 1.5 mg/kg
T4 construct: whole, on cells
Method: Six chimpanzees were examined for depletion of CD4^+ T cells and/or modulation of the CD4 receptor from the cell surface after infusions of increasing doses of antibody CE9γ4PE, up to 15 mg/kg. Peripheral blood samples were taken from each chimpanzee three weeks and two weeks prior to the start of the study to establish baseline levels for CD4^+ T cells. In addition to CD4^+ cells, CD3^+ and CD8^+ cell levels were also measured by flow cytometry. […] By subtraction of CD8^+ counts from total CD3^+ counts a theoretical value for the number of CD4^+ T cells could be calculated. By comparing this value with the CD4^+ cells measured suing OKT4, CD4 receptor modulation could be distinguished from CD4^+ cell depletion.

T4 sequence (P16004 26-458): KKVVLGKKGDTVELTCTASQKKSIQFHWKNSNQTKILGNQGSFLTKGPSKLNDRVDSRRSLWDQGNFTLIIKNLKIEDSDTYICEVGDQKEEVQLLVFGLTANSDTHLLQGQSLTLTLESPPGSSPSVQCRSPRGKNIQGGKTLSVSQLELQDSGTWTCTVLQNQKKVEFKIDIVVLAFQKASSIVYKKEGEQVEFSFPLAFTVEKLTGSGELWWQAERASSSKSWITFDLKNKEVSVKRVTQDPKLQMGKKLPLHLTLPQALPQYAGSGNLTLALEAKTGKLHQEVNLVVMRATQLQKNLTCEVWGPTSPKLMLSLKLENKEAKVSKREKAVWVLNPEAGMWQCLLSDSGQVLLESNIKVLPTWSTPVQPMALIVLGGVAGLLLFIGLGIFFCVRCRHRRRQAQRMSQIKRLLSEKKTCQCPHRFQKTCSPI
T3 sequence (P02745 23-245 limits assumed, chain 1 of 3): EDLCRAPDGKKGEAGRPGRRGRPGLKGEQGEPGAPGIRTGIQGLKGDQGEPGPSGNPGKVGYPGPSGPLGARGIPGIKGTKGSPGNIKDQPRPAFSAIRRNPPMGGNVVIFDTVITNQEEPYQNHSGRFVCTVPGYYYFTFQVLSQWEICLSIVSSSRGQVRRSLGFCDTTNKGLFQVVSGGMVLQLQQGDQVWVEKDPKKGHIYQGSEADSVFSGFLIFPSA
T3 sequence (P02746 28-253 limits assumed, chain 2 of 3): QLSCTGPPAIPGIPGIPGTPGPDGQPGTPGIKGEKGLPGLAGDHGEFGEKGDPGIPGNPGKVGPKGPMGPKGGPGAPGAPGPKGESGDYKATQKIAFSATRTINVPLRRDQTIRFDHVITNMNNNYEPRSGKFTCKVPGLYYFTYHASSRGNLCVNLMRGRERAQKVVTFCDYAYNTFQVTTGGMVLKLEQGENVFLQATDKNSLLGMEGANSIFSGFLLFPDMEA
T3 sequence (P02747 29-245 limits assumed, chain 3 of 3): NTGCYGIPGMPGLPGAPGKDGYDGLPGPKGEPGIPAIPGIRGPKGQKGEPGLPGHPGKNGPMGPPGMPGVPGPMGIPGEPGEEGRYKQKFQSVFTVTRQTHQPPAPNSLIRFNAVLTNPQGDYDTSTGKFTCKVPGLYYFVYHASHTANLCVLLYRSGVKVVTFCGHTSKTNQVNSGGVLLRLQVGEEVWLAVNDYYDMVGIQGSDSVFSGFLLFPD

B1: CE9γ4λK, chimeric anti-CD4 antibody with human gamma 4 heavy chain constant domain and human kappa light chain constant region (antibody)
heavy: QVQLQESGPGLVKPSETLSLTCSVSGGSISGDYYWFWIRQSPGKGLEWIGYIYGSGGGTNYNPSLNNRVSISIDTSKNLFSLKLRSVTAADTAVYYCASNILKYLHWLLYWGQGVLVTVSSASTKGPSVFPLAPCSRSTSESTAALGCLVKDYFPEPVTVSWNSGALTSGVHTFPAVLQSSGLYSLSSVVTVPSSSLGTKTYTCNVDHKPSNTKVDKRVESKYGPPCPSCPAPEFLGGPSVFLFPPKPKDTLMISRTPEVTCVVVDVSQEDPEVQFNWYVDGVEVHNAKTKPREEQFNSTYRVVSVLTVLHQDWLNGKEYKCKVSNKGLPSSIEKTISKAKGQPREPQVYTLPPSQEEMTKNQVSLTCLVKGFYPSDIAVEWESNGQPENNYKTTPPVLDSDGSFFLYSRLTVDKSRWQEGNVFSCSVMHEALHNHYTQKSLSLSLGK
light: SYELSQPRSVSVSPGQTAGFTCGGDNVGRKSVQWYQQKPPQAPVLVIYADSERPSGIPARFSGSNSGNTATLTISGVEAGDEADYYCQVWDSTADHWVFGGGTRLTVLG
notes: also called CE9γ4XK; CE9γ4K
Which results are given for B1?
Kd [1]: 1.08 nM; BIAcore Stoichiometry [2]: 1.67 moles CD4/mole mAb

B2: CE9.1, monkey/human chimeric anti-CD4 monoclonal antibody (cynomolgus variable domains, human gamma 1 / lambda constant regions) (antibody)
heavy: not shown
light: SYELSQPRSVSVSPGQTAGFTCGGDNVGRKSVQWYQQKPPQAPVLVIYADSERPSGIPARFSGSNSGNTATLTISGVEAGDEADYYCQVWDSTADHWVFGGGTRLTVLGQPKAAPSVTLFPPSSEELQANKATLVCLISDFYPGAVTVAWKADSSPVKAGVETTTPSKQSNNKYAASSYLSLTPEQWKSHRSYSCQVTHEGSTVEKTVAPTECS
notes: domain: gamma 1 constant region; the entries may be DNA and may hold a leader; also called mAb CE9.1; monkey/human recombinant antibody (ATCC No. 69030)
How did the Kd [3] turn out when B2 was run?
The Kd was 1 nM.

What about the “inhibition of human MLR (proliferation and IL-2 production), IC50” value (human CD4 on cells [4]) of the same binder?
Its value is 0.01 to 0.03 µg/mL.

And the “MLR IL-2 Production (IC50)” value (human CD4 on cells [5])?
The value was 0.005 µg/mL.

And the “MLR Proliferation (IC50)” value (human CD4 on cells [5])?
Its value is 0.02 µg/mL.

And the Kd [1]?
The Kd was 0.99 nM.

What about the “BIAcore Stoichiometry” value [2] of the same binder?
The value was 1.56 moles CD4/mole mAb.

B3: CE9γ4E, chimeric anti-CD4 antibody with human gamma 4 constant domain carrying the E modification (L236E) (antibody, human IgG4, lambda)
heavy: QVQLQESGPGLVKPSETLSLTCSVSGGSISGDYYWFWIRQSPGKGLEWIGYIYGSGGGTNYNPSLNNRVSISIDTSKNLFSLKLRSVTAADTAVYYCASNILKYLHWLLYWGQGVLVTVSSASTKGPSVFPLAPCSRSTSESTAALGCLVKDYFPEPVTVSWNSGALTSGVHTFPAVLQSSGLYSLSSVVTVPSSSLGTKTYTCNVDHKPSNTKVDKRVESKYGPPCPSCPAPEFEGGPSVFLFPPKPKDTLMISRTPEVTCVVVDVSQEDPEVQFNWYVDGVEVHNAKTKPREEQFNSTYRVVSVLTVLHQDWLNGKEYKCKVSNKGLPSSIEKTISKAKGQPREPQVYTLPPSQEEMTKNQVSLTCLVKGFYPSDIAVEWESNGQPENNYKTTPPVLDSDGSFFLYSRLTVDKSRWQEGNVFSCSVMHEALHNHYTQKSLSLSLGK
light: B2 light
notes: IgG4 (L236E; 248 Kabat numbering) lambda; also called CE9γ4E(G4E); CE9γE
B3 was tested. Which “MLR IL-2 Production (IC50)” value (human CD4 on cells [5]) did it give?
The value was 0.01 µg/mL.

What about the “MLR Proliferation (IC50)” value (human CD4 on cells [5]) of the same binder?
The value was 0.02 µg/mL.

What about the Kd [1] of the same binder?
The Kd was 1.43 nM.

What about the “BIAcore Stoichiometry” value [2] of the same binder?
The value was 1.72 moles CD4/mole mAb.

B4: CE9γ4PE, chimeric anti-CD4 antibody with human gamma 4 constant domain carrying the P and E modifications (S229P, L236E) (antibody, human IgG4 S228P, lambda)
heavy: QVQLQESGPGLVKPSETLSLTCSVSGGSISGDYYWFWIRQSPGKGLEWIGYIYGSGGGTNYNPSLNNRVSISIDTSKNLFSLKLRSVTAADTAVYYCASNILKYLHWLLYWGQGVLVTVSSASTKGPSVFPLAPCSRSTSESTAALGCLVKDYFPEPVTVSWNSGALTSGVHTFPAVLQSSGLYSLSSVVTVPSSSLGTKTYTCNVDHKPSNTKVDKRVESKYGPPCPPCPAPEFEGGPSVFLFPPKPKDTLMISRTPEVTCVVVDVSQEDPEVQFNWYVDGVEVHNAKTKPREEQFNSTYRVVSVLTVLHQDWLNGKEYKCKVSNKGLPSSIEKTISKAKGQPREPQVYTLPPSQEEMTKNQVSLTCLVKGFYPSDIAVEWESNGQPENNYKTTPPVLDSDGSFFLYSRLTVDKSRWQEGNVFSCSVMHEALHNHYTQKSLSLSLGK
light: B2 light
notes: IgG4 (S229P, L236E; 241 and 248 Kabat numbering) lambda, expressed in CHO; also called CE97PE(G4PE); CE9-4PE
What does the source list for B4?
MLR Proliferation (IC50) (human CD4 on cells [5]): 0.02 µg/mL; binding result (human C1q): no binding; Kd [1]: 1.09 nM; binding result [6]: binds

B5: CE9γ4, chimeric anti-CD4 antibody with human gamma 4 constant domain (antibody, human IgG4, lambda)
heavy: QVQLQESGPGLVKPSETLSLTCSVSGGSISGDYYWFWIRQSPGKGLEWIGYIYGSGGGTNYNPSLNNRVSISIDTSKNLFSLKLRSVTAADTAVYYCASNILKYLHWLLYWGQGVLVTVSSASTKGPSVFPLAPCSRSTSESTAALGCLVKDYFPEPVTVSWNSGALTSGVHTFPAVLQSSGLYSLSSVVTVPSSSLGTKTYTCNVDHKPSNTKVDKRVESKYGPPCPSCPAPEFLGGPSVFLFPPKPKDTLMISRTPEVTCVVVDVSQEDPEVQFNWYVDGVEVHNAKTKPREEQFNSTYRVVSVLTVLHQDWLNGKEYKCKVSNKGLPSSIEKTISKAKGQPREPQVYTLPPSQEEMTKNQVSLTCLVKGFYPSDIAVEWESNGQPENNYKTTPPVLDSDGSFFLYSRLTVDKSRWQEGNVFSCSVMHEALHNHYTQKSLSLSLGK
light: B2 light
notes: IgG4 lambda; also called CE9γ4(G4); anti-CD4 (G4, L, Oz-)
For B5, which “MLR IL-2 Production (IC50)” value (human CD4 on cells [5]) is on record?
The value was 0.005 µg/mL.

What about the “MLR Proliferation (IC50)” value (human CD4 on cells [5]) of the same binder?
The value was 0.02 µg/mL.

And the Kd [1]?
The Kd was 1.34 nM.

And the “BIAcore Stoichiometry” value [2]?
Its value is 1.61 moles CD4/mole mAb.
